In patent publication US20230295276A1:

Legend:
[1] = target: lysate of porcine coronavirus; assay: ELISA Test 1, coated viral lysate, antibody 1:4000, Group 1
[2] = target: lysate of porcine pseudorabies virus; assay: as above
[3] = target: lysate of porcine coronavirus; assay: ELISA Test 1, coated viral lysate, antibody 1:4000, Group 2
[4] = target: lysate of porcine pseudorabies virus; assay: as above
[5] = target: lysate of porcine coronavirus; assay: ELISA Test 2, coated viral lysate, antibody 1:4000, secondary antibody 1:2000

B1: anti-PRRSV antibody 572 (antibody, V domains shown)
VH: EVQLQQSGPELVKPGASVKISCKASGFSFTGYYMHWVKQSHVKSLEWIGRIYPYTDSTIYNQNFKDKAGLTVDKSSSTAYMELHSLTSEDSAVYYCARDNGYADYAMDYWGQGTSVTVSS
VL: DIVMTQSPSSLSAFLGDSITITCHASQNIHVWLSWYQQKPGNIPKLLIYKASNLHTGVPSRFSGSGSGTGFTLTISSLQPEDIGTYYCQQGQSYPLTFGAGTKLELK
Binder B1 has an OD450 [1] of 0.322 OD450, an OD450 [2] of 0.091 OD450 and an OD450 [3] of 0.312 OD450. For the same binder, the OD450 [4] was 0.1 OD450 and the OD450 [5] was 0.782 OD450.
